# Experiments:
# [1] = molecular target: MamB_(BW-1) cytosolic C-terminal domain (CTD), residues 190-270 (Desulfamplus magnetovallimortis strain BW-1) (UniProt G8IQT4); experiment: SEC; preparative size-exclusion chromatography after Ni-NTA; HiLoad 26/60 Superdex 75; buffer E (20 mM Tris-HCl pH 8, 150 mM NaCl, 5 mM beta-mercaptoethanol)
# [2] = molecular target: MamM_(BW-1) cytosolic C-terminal domain (CTD), residues 213-293 (Desulfamplus magnetovallimortis strain BW-1); experiment: as above
stoichiometry N [1],stoichiometry N [2],Substance
2,–,"MamB_(BW-1) cytosolic C-terminal domain (CTD), residues 190-270 (from UniProt G8IQT4 190-270) (domain or fragment)"
–,2,"MamM_(BW-1) cytosolic C-terminal domain (CTD), residues 213-293 (domain or fragment)"

# From publication PMC7170241
